US20180094275A1 (AGRESEARCH, published 2018)

T1: Y2H NINJA-AD (NINJA fused to GAL4 activation domain) (Arabidopsis thaliana)
T1 construct: Prey fusion; also called pDEST22-NINJA
T1 chain: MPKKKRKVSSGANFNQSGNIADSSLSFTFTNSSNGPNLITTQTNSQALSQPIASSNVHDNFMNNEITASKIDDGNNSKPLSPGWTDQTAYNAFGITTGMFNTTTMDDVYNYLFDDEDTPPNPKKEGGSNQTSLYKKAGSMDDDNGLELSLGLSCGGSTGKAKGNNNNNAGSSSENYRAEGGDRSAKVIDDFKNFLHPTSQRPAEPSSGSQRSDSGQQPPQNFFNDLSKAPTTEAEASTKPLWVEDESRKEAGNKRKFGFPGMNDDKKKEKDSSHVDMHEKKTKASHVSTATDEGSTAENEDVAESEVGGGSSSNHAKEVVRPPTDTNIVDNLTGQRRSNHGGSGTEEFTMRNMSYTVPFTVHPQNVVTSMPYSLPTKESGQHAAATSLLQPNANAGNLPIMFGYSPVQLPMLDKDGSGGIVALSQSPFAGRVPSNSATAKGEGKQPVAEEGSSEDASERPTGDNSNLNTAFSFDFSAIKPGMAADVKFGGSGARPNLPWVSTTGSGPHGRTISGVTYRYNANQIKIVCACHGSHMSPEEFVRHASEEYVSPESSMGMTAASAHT

T2: Y2H PPD1-AD (PPD1 fused to GAL4 activation domain) (Arabidopsis thaliana)
T2 construct: Prey fusion; also called pDEST22-PPD1
T2 chain: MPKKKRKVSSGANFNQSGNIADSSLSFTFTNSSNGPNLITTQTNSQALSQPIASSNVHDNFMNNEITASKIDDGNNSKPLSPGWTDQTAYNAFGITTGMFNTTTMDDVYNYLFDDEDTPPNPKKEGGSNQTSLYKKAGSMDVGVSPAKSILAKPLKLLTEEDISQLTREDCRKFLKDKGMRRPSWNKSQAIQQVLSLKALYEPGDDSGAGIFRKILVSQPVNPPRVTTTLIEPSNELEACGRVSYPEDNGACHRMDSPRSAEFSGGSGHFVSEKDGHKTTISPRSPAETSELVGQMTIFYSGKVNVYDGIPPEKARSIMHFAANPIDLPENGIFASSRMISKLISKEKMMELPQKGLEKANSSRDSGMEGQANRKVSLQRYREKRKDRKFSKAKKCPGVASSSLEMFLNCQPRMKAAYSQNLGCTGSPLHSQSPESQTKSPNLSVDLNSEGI

T3: Y2H RGA1-AD (DELLA protein RGA1 fused to GAL4 activation domain)
T3 construct: Prey fusion tested against PPD1-DBD as bait; also called DELLA (RGA1)
T3 chain: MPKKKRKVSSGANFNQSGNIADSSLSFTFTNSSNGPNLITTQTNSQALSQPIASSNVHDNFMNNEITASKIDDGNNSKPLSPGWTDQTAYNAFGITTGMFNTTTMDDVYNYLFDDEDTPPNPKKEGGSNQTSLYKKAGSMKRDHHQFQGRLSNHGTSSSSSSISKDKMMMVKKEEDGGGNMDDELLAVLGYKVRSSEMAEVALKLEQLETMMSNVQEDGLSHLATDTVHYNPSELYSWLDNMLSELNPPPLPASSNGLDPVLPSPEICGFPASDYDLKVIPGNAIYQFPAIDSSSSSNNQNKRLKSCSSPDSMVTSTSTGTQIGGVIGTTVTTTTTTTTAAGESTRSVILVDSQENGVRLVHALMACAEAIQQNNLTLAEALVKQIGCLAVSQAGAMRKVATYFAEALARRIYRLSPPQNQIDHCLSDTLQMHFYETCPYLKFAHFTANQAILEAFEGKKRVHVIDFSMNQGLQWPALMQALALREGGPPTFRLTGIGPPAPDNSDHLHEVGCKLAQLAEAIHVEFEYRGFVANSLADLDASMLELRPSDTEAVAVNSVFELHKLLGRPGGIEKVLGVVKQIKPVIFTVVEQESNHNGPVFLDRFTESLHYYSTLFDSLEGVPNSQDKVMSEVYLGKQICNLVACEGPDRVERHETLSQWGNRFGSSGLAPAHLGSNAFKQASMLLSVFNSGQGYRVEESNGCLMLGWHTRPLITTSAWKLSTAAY

T4: Y2H BZR1-AD (BZR1 fused to GAL4 activation domain) (Arabidopsis thaliana)
T4 construct: Prey fusion; also called pDEST22-BZR1
T4 chain: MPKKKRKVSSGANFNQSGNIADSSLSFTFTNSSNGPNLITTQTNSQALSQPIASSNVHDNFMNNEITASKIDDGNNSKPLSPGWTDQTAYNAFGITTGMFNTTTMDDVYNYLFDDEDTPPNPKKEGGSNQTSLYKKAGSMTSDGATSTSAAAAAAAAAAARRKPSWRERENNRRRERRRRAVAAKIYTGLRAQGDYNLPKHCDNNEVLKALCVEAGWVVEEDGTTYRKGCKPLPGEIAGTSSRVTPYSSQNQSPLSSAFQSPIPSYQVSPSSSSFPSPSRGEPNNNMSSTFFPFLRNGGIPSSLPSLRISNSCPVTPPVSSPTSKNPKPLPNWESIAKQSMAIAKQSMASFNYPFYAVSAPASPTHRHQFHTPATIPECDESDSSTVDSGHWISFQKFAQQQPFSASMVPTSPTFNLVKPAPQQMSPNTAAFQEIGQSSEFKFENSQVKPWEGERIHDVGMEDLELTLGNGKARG

B1: Y2H PPD1-DBD (PPD1 fused to GAL4 DNA binding domain) (other)
chain: MKLLSSIEEACNICRLKKLKCSKEKPKCAKCLKNNWECRYSPKTKRSPLTRAHLTEVESRLERLEQLFLLIFPRENLNMILKMDSLQDIKALLTGLFVQDNVNKDAVTDRLASVETDMPLTLRQHRISATSSSEESSNKGQRQLTVSSRSNQTSLYKKAGSMDVGVSPAKSILAKPLKLLTEEDISQLTREDCRKFLKDKGMRRPSWNKSQAIQQVLSLKALYEPGDDSGAGIFRKILVSQPVNPPRVTTTLIEPSNELEACGRVSYPEDNGACHRMDSPRSAEFSGGSGHFVSEKDGHKTTISPRSPAETSELVGQMTIFYSGKVNVYDGIPPEKARSIMHFAANPIDLPENGIFASSRMISKLISKEKMMELPQKGLEKANSSRDSGMEGQANRKVSLQRYREKRKDRKFSKAKKCPGVASSSLEMFLNCQPRMKAAYSQNLGCTGSPLHSQSPESQTKSPNLSVDLNSEGI
notes: Bait fusion expressed in yeast MaV203; also called pDEST32-PPD1; PPD1 bait
B2: Y2H TPL-DBD (TOPLESS fused to GAL4 DNA binding domain) (other)
chain: MKLLSSIEEACNICRLKKLKCSKEKPKCAKCLKNNWECRYSPKTKRSPLTRAHLTEVESRLERLEQLFLLIFPRENLNMILKMDSLQDIKALLTGLFVQDNVNKDAVTDRLASVETDMPLTLRQHRISATSSSEESSNKGQRQLTVSSRSNQTSLYKKAGSMSSLSRELVFLILQFLDEEKFKETVHKLEQESGFFFNMKYFEDEVHNGNWDEVEKYLSGFTKVDDNRYSMKIFFEIRKQKYLEALDKHDRPKAVDILVKDLKVFSTFNEELFKEITQLLTLENFRENEQLSKYGDTKSARAIMLVELKKLIEANPLFRDKLQFPTLRNSRLRTLINQSLNWQHQLCKNPRPNPDIKTLFVDHSCGPPNGARAPSPVNNPLLGGIPKAGGFPPLGAHGPFQPTASPVPTPLAGWMSSPSSVPHPAVSAGAIALGGPSIPAALKHPRTPPTNASLDYPSADSEHVSKRTRPMGISDEVNLGVNMLPMSFSGQAHGHSPAFKAPDDLPKTVARTLSQGSSPMSMDFHPIKQTLLLVGTNVGDIGLWEVGSRERLVQKTFKVWDLSKCSMPLQAALVKEPVVSVNRVIWSPDGSLFGVAYSRHIVQLYSYHGGEDMRQHLEIDAHVGGVNDISFSTPNKQLCVITCGDDKTIKVWDAATGVKRHTFEGHEAPVYSVCPHYKENIQFIFSTALDGKIKAWLYDNMGSRVDYDAPGRWCTTMAYSADGTRLFSCGTSKDGESFIVEWNESEGAVKRTYQGFHKRSLGVVQFDTTKNRYLAAGDDFSIKFWDMDAVQLLTAIDGDGGLQASPRIRFNKEGSLLAVSGNENVIKIMANSDGLRLLHTFENISSESSKPAINSIAAAAAAAATSAGHADRSANVVSIQGMNGDSRNMVDVKPVITEESNDKSKIWKLTEVSEPSQCRSLRLPENLRVAKISRLIFTNSGNAILALASNAIHLLWKWQRNERNATGKATASLPPQQWQPASGILMTNDVAETNPEEAVPCFALSKNDSYVMSASGGKISLFNMMTFKTMATFMPPPPAATFLAFHPQDNNIIAIGMDDSTIQIYNVRVDEVKSKLKGHSKRITGLAFSNVLNVLVSSGADAQLCVWNTDGWEKQRSKVLPLPQGRPNSAPSDTRVQFHQDQAHFLVVHETQLAIYETTKLECMKQWAVRESLAPITHATFSCDSQLVYASFMDATVCVFSSANLRLRCRVNPSAYLPASLSNSNVHPLVIAAHPQEPNMFAVGLSDGGVHIFEPLESEGKWGVAPPAENGSASGAPTAPSVGASASDQPQR
notes: Bait fusion; also called pDEST32-TPL

How the values were obtained:
[1] = molecular target: T1, Y2H NINJA-AD (NINJA fused to GAL4 …); assay: yeast two-hybrid
[2] = molecular target: T2, Y2H PPD1-AD (PPD1 fused to GAL4 …); assay: yeast two-hybrid
[3] = molecular target: T3, Y2H RGA1-AD (DELLA protein RGA1 fused …); assay: yeast two-hybrid, PPD1-DBD as bait, selective medium with 15 mM 3AT
[4] = molecular target: T4, Y2H BZR1-AD (BZR1 fused to GAL4 …); assay: yeast two-hybrid (ProQuest, MaV203)
[5] = molecular target: T4, Y2H BZR1-AD (BZR1 fused to GAL4 …); assay: yeast two-hybrid

Row | Binder | binding result [1] | binding result [2] | binding result [3] | binding result [4] | binding result [5]
1 | B1 | binds | binds | binds | no binding | –
2 | B2 | binds | – | – | – | binds
